Data taken from PMC5123574, “Redox cofactors insertion in prokaryotic molybdoenzymes occurs via a conserved folding mechanism” (Scientific Reports, 2016).

Target: the molecule itself
Test: SAXS; SEC-coupled SAXS (SWING beamline, SOLEIL); ~25 mg/mL in Tris-HCl 40 mM pH 7.6, 8% glycerol, online Agilent BioSEC-3 300 Å column; Mw from SAXSMoW, volume from DAMMIF; NarGH heterodimers into a trimer

| Protein | stoichiometry N | binding result |
| --- | --- | --- |
| holoNarGH, Moco-loaded soluble catalytic NarGH complex of nitrate reductase A (complex, E. coli, NarG, nitrate-reducing catalytic subunit of respiratory nitrate reductase A, E. coli; carries Mo-bisPGD and the [4Fe-4S] cluster FS0; Printed residue numbers (Arg108, Glu794) follow the crystal structure 1q16; NarH, electron-transfer subunit of respiratory nitrate reductase A, E. coli; carries four Fe/S clusters (FS1-4); The unit written here is the NarGH heterodimer (~200 kDa), which is trimeric …) chain 1: MSKFLDRFRYFKQKGETFADGHGQLLNTNRDWEDGYRQRWQHDKIVRSTHGVNCTGSCSWKIYVKNGLVTWETQQTDYPRTRPDLPNHEPRGCPRGASYSWYLYSANRLKYPMMRKRLMKMWREAKALHSDPVEAWASIIEDADKAKSFKQARGRGGFVRSSWQEVNELIAASNVYTIKNYGPDRVAGFSPIPAMSMVSYASGARYLSLIGGTCLSFYDWYCDLPPASPQTWGEQTDVPESADWYNSSYIIAWGSNVPQTRTPDAHFFTEVRYKGTKTVAVTPDYAEIAKLCDLWLAPKQGTDAAMALAMGHVMLREFHLDNPSQYFTDYVRRYTDMPMLVMLEERDGYYAAGRMLRAADLVDALGQENNPEWKTVAFNTNGEMVAPNGSIGFRWGEKGKWNLEQRDGKTGEETELQLSLLGSQDEIAEVGFPYFGGDGTEHFNKVELENVLLHKLPVKRLQLADGSTALVTTVYDLTLANYGLERGLNDVNCATSYDDVKAYTPAWAEQITGVSRSQIIRIAREFADNADKTHGRSMIIVGAGLNHWYHLDMNYRGLINMLIFCGCVGQSGGGWAHYVGQEKLRPQTGWQPLAFALDWQRPARHMNSTSYFYNHSSQWRYETVTAEELLSPMADKSRYTGHLIDFNVRAERMGWLPSAPQLGTNPLTIAGEAEKAGMNPVDYTVKSLKEGSIRFAAEQPENGKNHPRNLFIWRSNLLGSSGKGHEFMLKYLLGTEHGIQGKDLGQQGGVKPEEVDWQDNGLEGKLDLVVTLDFRLSSTCLYSDIILPTATWYEKDDMNTSDMHPFIHPLSAAVDPAWEAKSDWEIYKAIAKKFSEVCVGHLGKETDIVTLPIQHDSAAELAQPLDVKDWKKGECDLIPGKTAPHIMVVERDYPATYERFTSIGPLMEKIGNGGKGIAWNTQSEMDLLRKLNYTKAEGPAKGQPMLNTAIDAAEMILTLAPETNGQVAVKAWAALSEFTGRDHTHLALNKEDEKIRFRDIQAQPRKIISSPTWSGLEDEHVSYNAGYTNVHELIPWRTLSGRQQLYQDHQWMRDFGESLLVYRPPIDTRSVKEVIGQKSNGNQEKALNFLTPHQKWGIHSTYSDNLLMLTLGRGGPVVWLSEADAKDLGIADNDWIEVFNSNGALTARAVVSQRVPAGMTMMYHAQERIVNLPGSEITQQRGGIHNSVTRITPKPTHMIGGYAHLAYGFNYYGTVGSNRDEFVVVRKMKNIDWLDGEGNDQVQESVK chain 2: MKIRSQVGMVLNLDKCIGCHTCSVTCKNVWTSREGVEYAWFNNVETKPGQGFPTDWENQEKYKGGWIRKINGKLQPRMGNRAMLLGKIFANPHLPGIDDYYEPFDFDYQNLHTAPEGSKSQPIARPRSLITGERMAKIEKGPNWEDDLGGEFDKLAKDKNFDNIQKAMYSQFENTFMMYLPRLCEHCLNPACVATCPSGAIYKREEDGIVLIDQDKCRGWRMCITGCPYKKIYFNWKSGKSEKCIFCYPRIEAGQPTVCSETCVGRIRYLGVLLYDADAIERAASTENEKDLYQRQLDVFLDPNDPKVIEQAIKDGIPLSVIEAAQQSPVYKMAMEWKLALPLHPEYRTLPMVWYVPPLSPIQSAADAGELGSNGILPDVESLRIPVQYLANLLTAGDTKPVLRALKRMLAMRHYKRAETVDGKVDTRALEEVGLTEAQAQEMYRYLAIANYEDRFVVPSSHRELAREAFPEKNGCGFTFGDGCHGSDTKFNLFNSRRIDAIDVTSKTEPHP | 3 | – |
| NarG_(R108A)H_(His6) complex (complex, E. coli, NarG, catalytic subunit of respiratory nitrate reductase A, E. coli, with R108A; NarH, electron-transfer subunit of respiratory nitrate reductase A, E. coli; The unit is the NarGH heterodimer; His6 put on NarH from the plasmid name; also called R108A NarGH; NarGH variant; source: E. coli with pNarG_(R108A)H_(His6)J, purified) chain 1: MSKFLDRFRYFKQKGETFADGHGQLLNTNRDWEDGYRQRWQHDKIVRSTHGVNCTGSCSWKIYVKNGLVTWETQQTDYPRTRPDLPNHEPRGCPRGASYSWYLYSANALKYPMMRKRLMKMWREAKALHSDPVEAWASIIEDADKAKSFKQARGRGGFVRSSWQEVNELIAASNVYTIKNYGPDRVAGFSPIPAMSMVSYASGARYLSLIGGTCLSFYDWYCDLPPASPQTWGEQTDVPESADWYNSSYIIAWGSNVPQTRTPDAHFFTEVRYKGTKTVAVTPDYAEIAKLCDLWLAPKQGTDAAMALAMGHVMLREFHLDNPSQYFTDYVRRYTDMPMLVMLEERDGYYAAGRMLRAADLVDALGQENNPEWKTVAFNTNGEMVAPNGSIGFRWGEKGKWNLEQRDGKTGEETELQLSLLGSQDEIAEVGFPYFGGDGTEHFNKVELENVLLHKLPVKRLQLADGSTALVTTVYDLTLANYGLERGLNDVNCATSYDDVKAYTPAWAEQITGVSRSQIIRIAREFADNADKTHGRSMIIVGAGLNHWYHLDMNYRGLINMLIFCGCVGQSGGGWAHYVGQEKLRPQTGWQPLAFALDWQRPARHMNSTSYFYNHSSQWRYETVTAEELLSPMADKSRYTGHLIDFNVRAERMGWLPSAPQLGTNPLTIAGEAEKAGMNPVDYTVKSLKEGSIRFAAEQPENGKNHPRNLFIWRSNLLGSSGKGHEFMLKYLLGTEHGIQGKDLGQQGGVKPEEVDWQDNGLEGKLDLVVTLDFRLSSTCLYSDIILPTATWYEKDDMNTSDMHPFIHPLSAAVDPAWEAKSDWEIYKAIAKKFSEVCVGHLGKETDIVTLPIQHDSAAELAQPLDVKDWKKGECDLIPGKTAPHIMVVERDYPATYERFTSIGPLMEKIGNGGKGIAWNTQSEMDLLRKLNYTKAEGPAKGQPMLNTAIDAAEMILTLAPETNGQVAVKAWAALSEFTGRDHTHLALNKEDEKIRFRDIQAQPRKIISSPTWSGLEDEHVSYNAGYTNVHELIPWRTLSGRQQLYQDHQWMRDFGESLLVYRPPIDTRSVKEVIGQKSNGNQEKALNFLTPHQKWGIHSTYSDNLLMLTLGRGGPVVWLSEADAKDLGIADNDWIEVFNSNGALTARAVVSQRVPAGMTMMYHAQERIVNLPGSEITQQRGGIHNSVTRITPKPTHMIGGYAHLAYGFNYYGTVGSNRDEFVVVRKMKNIDWLDGEGNDQVQESVK chain 2: MKIRSQVGMVLNLDKCIGCHTCSVTCKNVWTSREGVEYAWFNNVETKPGQGFPTDWENQEKYKGGWIRKINGKLQPRMGNRAMLLGKIFANPHLPGIDDYYEPFDFDYQNLHTAPEGSKSQPIARPRSLITGERMAKIEKGPNWEDDLGGEFDKLAKDKNFDNIQKAMYSQFENTFMMYLPRLCEHCLNPACVATCPSGAIYKREEDGIVLIDQDKCRGWRMCITGCPYKKIYFNWKSGKSEKCIFCYPRIEAGQPTVCSETCVGRIRYLGVLLYDADAIERAASTENEKDLYQRQLDVFLDPNDPKVIEQAIKDGIPLSVIEAAQQSPVYKMAMEWKLALPLHPEYRTLPMVWYVPPLSPIQSAADAGELGSNGILPDVESLRIPVQYLANLLTAGDTKPVLRALKRMLAMRHYKRAETVDGKVDTRALEEVGLTEAQAQEMYRYLAIANYEDRFVVPSSHRELAREAFPEKNGCGFTFGDGCHGSDTKFNLFNSRRIDAIDVTSKTEPHP | – | binds |
| apoNarGH, cofactor-less NarGH complex produced in absence of NarJ (complex, E. coli, NarG, nitrate-reducing catalytic subunit of respiratory nitrate reductase A, E. coli; here devoid of FS0 and Moco; Printed residue numbers follow the crystal structure 1q16; NarH, electron-transfer subunit of respiratory nitrate reductase A, E. coli; The unit is the NarGH heterodimer; His6 put on NarH from the plasmid name; also called Moco-less His-tagged NarGH complex) chain 1: MSKFLDRFRYFKQKGETFADGHGQLLNTNRDWEDGYRQRWQHDKIVRSTHGVNCTGSCSWKIYVKNGLVTWETQQTDYPRTRPDLPNHEPRGCPRGASYSWYLYSANRLKYPMMRKRLMKMWREAKALHSDPVEAWASIIEDADKAKSFKQARGRGGFVRSSWQEVNELIAASNVYTIKNYGPDRVAGFSPIPAMSMVSYASGARYLSLIGGTCLSFYDWYCDLPPASPQTWGEQTDVPESADWYNSSYIIAWGSNVPQTRTPDAHFFTEVRYKGTKTVAVTPDYAEIAKLCDLWLAPKQGTDAAMALAMGHVMLREFHLDNPSQYFTDYVRRYTDMPMLVMLEERDGYYAAGRMLRAADLVDALGQENNPEWKTVAFNTNGEMVAPNGSIGFRWGEKGKWNLEQRDGKTGEETELQLSLLGSQDEIAEVGFPYFGGDGTEHFNKVELENVLLHKLPVKRLQLADGSTALVTTVYDLTLANYGLERGLNDVNCATSYDDVKAYTPAWAEQITGVSRSQIIRIAREFADNADKTHGRSMIIVGAGLNHWYHLDMNYRGLINMLIFCGCVGQSGGGWAHYVGQEKLRPQTGWQPLAFALDWQRPARHMNSTSYFYNHSSQWRYETVTAEELLSPMADKSRYTGHLIDFNVRAERMGWLPSAPQLGTNPLTIAGEAEKAGMNPVDYTVKSLKEGSIRFAAEQPENGKNHPRNLFIWRSNLLGSSGKGHEFMLKYLLGTEHGIQGKDLGQQGGVKPEEVDWQDNGLEGKLDLVVTLDFRLSSTCLYSDIILPTATWYEKDDMNTSDMHPFIHPLSAAVDPAWEAKSDWEIYKAIAKKFSEVCVGHLGKETDIVTLPIQHDSAAELAQPLDVKDWKKGECDLIPGKTAPHIMVVERDYPATYERFTSIGPLMEKIGNGGKGIAWNTQSEMDLLRKLNYTKAEGPAKGQPMLNTAIDAAEMILTLAPETNGQVAVKAWAALSEFTGRDHTHLALNKEDEKIRFRDIQAQPRKIISSPTWSGLEDEHVSYNAGYTNVHELIPWRTLSGRQQLYQDHQWMRDFGESLLVYRPPIDTRSVKEVIGQKSNGNQEKALNFLTPHQKWGIHSTYSDNLLMLTLGRGGPVVWLSEADAKDLGIADNDWIEVFNSNGALTARAVVSQRVPAGMTMMYHAQERIVNLPGSEITQQRGGIHNSVTRITPKPTHMIGGYAHLAYGFNYYGTVGSNRDEFVVVRKMKNIDWLDGEGNDQVQESVK chain 2: MKIRSQVGMVLNLDKCIGCHTCSVTCKNVWTSREGVEYAWFNNVETKPGQGFPTDWENQEKYKGGWIRKINGKLQPRMGNRAMLLGKIFANPHLPGIDDYYEPFDFDYQNLHTAPEGSKSQPIARPRSLITGERMAKIEKGPNWEDDLGGEFDKLAKDKNFDNIQKAMYSQFENTFMMYLPRLCEHCLNPACVATCPSGAIYKREEDGIVLIDQDKCRGWRMCITGCPYKKIYFNWKSGKSEKCIFCYPRIEAGQPTVCSETCVGRIRYLGVLLYDADAIERAASTENEKDLYQRQLDVFLDPNDPKVIEQAIKDGIPLSVIEAAQQSPVYKMAMEWKLALPLHPEYRTLPMVWYVPPLSPIQSAADAGELGSNGILPDVESLRIPVQYLANLLTAGDTKPVLRALKRMLAMRHYKRAETVDGKVDTRALEEVGLTEAQAQEMYRYLAIANYEDRFVVPSSHRELAREAFPEKNGCGFTFGDGCHGSDTKFNLFNSRRIDAIDVTSKTEPHP | 3 | – |
